In patent publication US20160272683A1 (Novo Nordisk, published 2016):
* marks the point of attachment. C18 diacid = O=C(O)CCCCCCCCCCCCCCCCC(=O)*

B1: [N-terminal(C18 diacid), 5H]mimylin (peptide)
peptide: {C18 diacid}-EASEHSTAALGRLSAELHELATLPRTETGPESP-NH2
SMILES: CC(C)C[C@H](NC(=O)[C@H](C)NC(=O)[C@H](C)NC(=O)[C@@H](NC(=O)[C@H](CO)NC(=O)[C@H](Cc1c[nH]cn1)NC(=O)[C@H](CCC(=O)O)NC(=O)[C@H](CO)NC(=O)[C@H](C)NC(=O)[C@H](CCC(=O)O)NC(=O)CCCCCCCCCCCCCCCCC(=O)O)[C@@H](C)O)C(=O)NCC(=O)N[C@@H](CCCNC(=N)N)C(=O)N[C@@H](CC(C)C)C(=O)N[C@@H](CO)C(=O)N[C@@H](C)C(=O)N[C@@H](CCC(=O)O)C(=O)N[C@@H](CC(C)C)C(=O)N[C@@H](Cc1c[nH]cn1)C(=O)N[C@@H](CCC(=O)O)C(=O)N[C@@H](CC(C)C)C(=O)N[C@@H](C)C(=O)N[C@H](C(=O)N[C@@H](CC(C)C)C(=O)N1CCC[C@H]1C(=O)N[C@@H](CCCNC(=N)N)C(=O)N[C@H](C(=O)N[C@@H](CCC(=O)O)C(=O)N[C@H](C(=O)NCC(=O)N1CCC[C@H]1C(=O)N[C@@H](CCC(=O)O)C(=O)N[C@@H](CO)C(=O)N1CCC[C@H]1C(N)=O)[C@@H](C)O)[C@@H](C)O)[C@@H](C)O
notes: also called Ex. #17
B2: [N-terminal(C18 diacid), 5I, 9I, 10I, 20I]mimylin (peptide)
peptide: {C18 diacid}-EASEISTAIIGRLSAELHEIATLPRTETGPESP-NH2
SMILES: CC[C@H](C)[C@H](NC(=O)[C@H](C)NC(=O)[C@@H](NC(=O)[C@H](CO)NC(=O)[C@@H](NC(=O)[C@H](CCC(=O)O)NC(=O)[C@H](CO)NC(=O)[C@H](C)NC(=O)[C@H](CCC(=O)O)NC(=O)CCCCCCCCCCCCCCCCC(=O)O)[C@@H](C)CC)[C@@H](C)O)C(=O)N[C@H](C(=O)NCC(=O)N[C@@H](CCCNC(=N)N)C(=O)N[C@@H](CC(C)C)C(=O)N[C@@H](CO)C(=O)N[C@@H](C)C(=O)N[C@@H](CCC(=O)O)C(=O)N[C@@H](CC(C)C)C(=O)N[C@@H](Cc1c[nH]cn1)C(=O)N[C@@H](CCC(=O)O)C(=O)N[C@H](C(=O)N[C@@H](C)C(=O)N[C@H](C(=O)N[C@@H](CC(C)C)C(=O)N1CCC[C@H]1C(=O)N[C@@H](CCCNC(=N)N)C(=O)N[C@H](C(=O)N[C@@H](CCC(=O)O)C(=O)N[C@H](C(=O)NCC(=O)N1CCC[C@H]1C(=O)N[C@@H](CCC(=O)O)C(=O)N[C@@H](CO)C(=O)N1CCC[C@H]1C(N)=O)[C@@H](C)O)[C@@H](C)O)[C@@H](C)O)[C@@H](C)CC)[C@@H](C)CC
notes: also called Ex. #77
B3: [N-terminal(C18 diacid), 5I, 9I]mimylin (peptide)
peptide: {C18 diacid}-EASEISTAILGRLSAELHELATLPRTETGPESP-NH2
SMILES: CC[C@H](C)[C@H](NC(=O)[C@H](C)NC(=O)[C@@H](NC(=O)[C@H](CO)NC(=O)[C@@H](NC(=O)[C@H](CCC(=O)O)NC(=O)[C@H](CO)NC(=O)[C@H](C)NC(=O)[C@H](CCC(=O)O)NC(=O)CCCCCCCCCCCCCCCCC(=O)O)[C@@H](C)CC)[C@@H](C)O)C(=O)N[C@@H](CC(C)C)C(=O)NCC(=O)N[C@@H](CCCNC(=N)N)C(=O)N[C@@H](CC(C)C)C(=O)N[C@@H](CO)C(=O)N[C@@H](C)C(=O)N[C@@H](CCC(=O)O)C(=O)N[C@@H](CC(C)C)C(=O)N[C@@H](Cc1c[nH]cn1)C(=O)N[C@@H](CCC(=O)O)C(=O)N[C@@H](CC(C)C)C(=O)N[C@@H](C)C(=O)N[C@H](C(=O)N[C@@H](CC(C)C)C(=O)N1CCC[C@H]1C(=O)N[C@@H](CCCNC(=N)N)C(=O)N[C@H](C(=O)N[C@@H](CCC(=O)O)C(=O)N[C@H](C(=O)NCC(=O)N1CCC[C@H]1C(=O)N[C@@H](CCC(=O)O)C(=O)N[C@@H](CO)C(=O)N1CCC[C@H]1C(N)=O)[C@@H](C)O)[C@@H](C)O)[C@@H](C)O
notes: also called Ex. #25
B4: [N-terminal(C18 diacid), 5I]mimylin (peptide)
peptide: {C18 diacid}-EASEISTAALGRLSAELHELATLPRTETGPESP-NH2
SMILES: CC[C@H](C)[C@H](NC(=O)[C@H](CCC(=O)O)NC(=O)[C@H](CO)NC(=O)[C@H](C)NC(=O)[C@H](CCC(=O)O)NC(=O)CCCCCCCCCCCCCCCCC(=O)O)C(=O)N[C@@H](CO)C(=O)N[C@H](C(=O)N[C@@H](C)C(=O)N[C@@H](C)C(=O)N[C@@H](CC(C)C)C(=O)NCC(=O)N[C@@H](CCCNC(=N)N)C(=O)N[C@@H](CC(C)C)C(=O)N[C@@H](CO)C(=O)N[C@@H](C)C(=O)N[C@@H](CCC(=O)O)C(=O)N[C@@H](CC(C)C)C(=O)N[C@@H](Cc1c[nH]cn1)C(=O)N[C@@H](CCC(=O)O)C(=O)N[C@@H](CC(C)C)C(=O)N[C@@H](C)C(=O)N[C@H](C(=O)N[C@@H](CC(C)C)C(=O)N1CCC[C@H]1C(=O)N[C@@H](CCCNC(=N)N)C(=O)N[C@H](C(=O)N[C@@H](CCC(=O)O)C(=O)N[C@H](C(=O)NCC(=O)N1CCC[C@H]1C(=O)N[C@@H](CCC(=O)O)C(=O)N[C@@H](CO)C(=O)N1CCC[C@H]1C(N)=O)[C@@H](C)O)[C@@H](C)O)[C@@H](C)O)[C@@H](C)O
notes: also called Ex. #8
B5: [N-terminal(C18 diacid), 5V, 9V]mimylin (peptide)
peptide: {C18 diacid}-EASEVSTAVLGRLSAELHELATLPRTETGPESP-NH2
SMILES: CC(C)C[C@H](NC(=O)[C@H](CCC(=O)O)NC(=O)[C@H](Cc1c[nH]cn1)NC(=O)[C@H](CC(C)C)NC(=O)[C@H](CCC(=O)O)NC(=O)[C@H](C)NC(=O)[C@H](CO)NC(=O)[C@H](CC(C)C)NC(=O)[C@H](CCCNC(=N)N)NC(=O)CNC(=O)[C@H](CC(C)C)NC(=O)[C@@H](NC(=O)[C@H](C)NC(=O)[C@@H](NC(=O)[C@H](CO)NC(=O)[C@@H](NC(=O)[C@H](CCC(=O)O)NC(=O)[C@H](CO)NC(=O)[C@H](C)NC(=O)[C@H](CCC(=O)O)NC(=O)CCCCCCCCCCCCCCCCC(=O)O)C(C)C)[C@@H](C)O)C(C)C)C(=O)N[C@@H](C)C(=O)N[C@H](C(=O)N[C@@H](CC(C)C)C(=O)N1CCC[C@H]1C(=O)N[C@@H](CCCNC(=N)N)C(=O)N[C@H](C(=O)N[C@@H](CCC(=O)O)C(=O)N[C@H](C(=O)NCC(=O)N1CCC[C@H]1C(=O)N[C@@H](CCC(=O)O)C(=O)N[C@@H](CO)C(=O)N1CCC[C@H]1C(N)=O)[C@@H](C)O)[C@@H](C)O)[C@@H](C)O
notes: also called Ex. #24
B6: [N-terminal(C18 diacid), 6H]mimylin (peptide)
peptide: {C18 diacid}-EASELHTAALGRLSAELHELATLPRTETGPESP-NH2
SMILES: CC(C)C[C@H](NC(=O)[C@H](C)NC(=O)[C@H](C)NC(=O)[C@@H](NC(=O)[C@H](Cc1c[nH]cn1)NC(=O)[C@H](CC(C)C)NC(=O)[C@H](CCC(=O)O)NC(=O)[C@H](CO)NC(=O)[C@H](C)NC(=O)[C@H](CCC(=O)O)NC(=O)CCCCCCCCCCCCCCCCC(=O)O)[C@@H](C)O)C(=O)NCC(=O)N[C@@H](CCCNC(=N)N)C(=O)N[C@@H](CC(C)C)C(=O)N[C@@H](CO)C(=O)N[C@@H](C)C(=O)N[C@@H](CCC(=O)O)C(=O)N[C@@H](CC(C)C)C(=O)N[C@@H](Cc1c[nH]cn1)C(=O)N[C@@H](CCC(=O)O)C(=O)N[C@@H](CC(C)C)C(=O)N[C@@H](C)C(=O)N[C@H](C(=O)N[C@@H](CC(C)C)C(=O)N1CCC[C@H]1C(=O)N[C@@H](CCCNC(=N)N)C(=O)N[C@H](C(=O)N[C@@H](CCC(=O)O)C(=O)N[C@H](C(=O)NCC(=O)N1CCC[C@H]1C(=O)N[C@@H](CCC(=O)O)C(=O)N[C@@H](CO)C(=O)N1CCC[C@H]1C(N)=O)[C@@H](C)O)[C@@H](C)O)[C@@H](C)O
notes: also called Ex. #16
B7: [N-terminal(C18 diacid), 8L]mimylin (peptide)
peptide: {C18 diacid}-EASELSTLALGRLSAELHELATLPRTETGPESP-NH2
SMILES: CC(C)C[C@H](NC(=O)[C@H](C)NC(=O)[C@H](CC(C)C)NC(=O)[C@@H](NC(=O)[C@H](CO)NC(=O)[C@H](CC(C)C)NC(=O)[C@H](CCC(=O)O)NC(=O)[C@H](CO)NC(=O)[C@H](C)NC(=O)[C@H](CCC(=O)O)NC(=O)CCCCCCCCCCCCCCCCC(=O)O)[C@@H](C)O)C(=O)NCC(=O)N[C@@H](CCCNC(=N)N)C(=O)N[C@@H](CC(C)C)C(=O)N[C@@H](CO)C(=O)N[C@@H](C)C(=O)N[C@@H](CCC(=O)O)C(=O)N[C@@H](CC(C)C)C(=O)N[C@@H](Cc1c[nH]cn1)C(=O)N[C@@H](CCC(=O)O)C(=O)N[C@@H](CC(C)C)C(=O)N[C@@H](C)C(=O)N[C@H](C(=O)N[C@@H](CC(C)C)C(=O)N1CCC[C@H]1C(=O)N[C@@H](CCCNC(=N)N)C(=O)N[C@H](C(=O)N[C@@H](CCC(=O)O)C(=O)N[C@H](C(=O)NCC(=O)N1CCC[C@H]1C(=O)N[C@@H](CCC(=O)O)C(=O)N[C@@H](CO)C(=O)N1CCC[C@H]1C(N)=O)[C@@H](C)O)[C@@H](C)O)[C@@H](C)O
notes: also called Ex. #15

The binders below were run against T1, human calcitonin receptor (human, UniProt P30988 25-474) (assay: whole-cell competition vs 125I-human calcitonin (Assay VIIa)).
T1 construct: whole, on cells; also called hCT-R; hCTR
T1 sequence (looked up): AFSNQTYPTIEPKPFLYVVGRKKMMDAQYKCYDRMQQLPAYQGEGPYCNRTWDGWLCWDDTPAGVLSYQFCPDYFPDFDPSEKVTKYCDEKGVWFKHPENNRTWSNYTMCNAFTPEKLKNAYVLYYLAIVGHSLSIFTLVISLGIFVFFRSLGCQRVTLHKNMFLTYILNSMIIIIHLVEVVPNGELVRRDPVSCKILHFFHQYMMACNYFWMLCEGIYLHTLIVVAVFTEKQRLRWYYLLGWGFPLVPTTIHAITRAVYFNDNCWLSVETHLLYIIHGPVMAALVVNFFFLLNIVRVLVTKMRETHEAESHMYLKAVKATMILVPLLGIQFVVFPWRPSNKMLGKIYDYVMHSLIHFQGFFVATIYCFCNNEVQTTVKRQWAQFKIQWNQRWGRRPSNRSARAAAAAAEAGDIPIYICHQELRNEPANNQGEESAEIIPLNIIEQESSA
Experimental: The binding assay was performed using a BHK tk'ts 13 cell line was stably transfected with the human calcitonin receptor, and a CRE-responsive luciferase reporter gene.
The day before the assay the cells were Seeded into Poly-D-Lysin coated 384W Opaque White, BD BioCoat plates (10000 cells/well) and Incubated overnight at 37° C., 5% CO2, 95% humidity. […] The morning after, the plates were washed three times in HBSS (4° C.), and lyzed in Lysis buffer (0.1 M NaOH), 1% SDS. Scintillation cocktail (MicroScint40®) was added and the plates were shaken at 500 rpm for a short period. The plate was incubated at room temperature in the dark for 1 hour and Read on a TopCounter™ (Packard). The IC₅₀ was calculated using (one site binding competition analysis) GraphPad Prism5 as a measure of receptor affinity.
In the case of B1, the IC50 is reported as 0.577 nM.
In the case of B2, the IC50 is reported as 1.1 nM.
B3 gave an IC50 of 0.413 nM.
Binder B4 has an IC50 of 0.368 nM.
In the case of B5, the IC50 is reported as 0.749 nM.
For B6, the IC50 was 0.981 nM.
B7 showed an IC50 of 0.473 nM.
